Experimental data reported in patent US20210388087A1 (Chugai, published 2021).
Substitutions are numbered along the chain they refer to. Numbers in names are those of the source.

B1: dBBDu183H G65H / dBBDu072L (antibody, name in Kabat numbering, V domains shown)
VH: QVQLVESGGGLVQPGRSLRLSCAASGFTFSNAWMHWVRQAPGKGLEWVAQIKDKGNAYAAYYAPSVKHRFTISRDDSKNSIYLQMNSLKTEDTAVYYCHYVHYASASTVLPAFGVDAWGQGTTVTVSS
VL: DIVMTQSPLSLPVTPGEPASISCQASQELVHMNRNTYLHWYQQKPGQAPRLLIYKVSNRFPGVPDRFSGSGSGTDFTLKISRVEAEDVGVYYCAQGTSVPFTFGQGTKLEIK
notes: as m1, one VH change
B2: dBBDu183H K64V / dBBDu072L (antibody, name in Kabat numbering, V domains shown)
VH: B1 VH with K67V, H68G
VL: B1 VL
notes: as m1, one VH change
B3: dBBDu183H L100dE / dBBDu072L (antibody, name in Kabat numbering, V domains shown)
VH: B1 VH with H68G, L110E
VL: B1 VL
notes: as m1, one VH change
B4: dBBDu183H G65K / dBBDu072L (antibody, name in Kabat numbering, V domains shown)
VH: B1 VH with H68K
VL: B1 VL
notes: as m1, one VH change
B5: dBBDu183H L100dK / dBBDu072L (antibody, name in Kabat numbering, V domains shown)
VH: B1 VH with H68G, L110K
VL: B1 VL
notes: as m1, one VH change
B6: dBBDu183H G65Y / dBBDu072L (antibody, name in Kabat numbering, V domains shown)
VH: B1 VH with H68Y
VL: B1 VL
notes: as m1, one VH change
B7: dBBDu183H L100dQ / dBBDu072L (antibody, name in Kabat numbering, V domains shown)
VH: B1 VH with H68G, L110Q
VL: B1 VL
notes: as m1, one VH change
B8: dBBDu183H K64S / dBBDu072L (antibody, name in Kabat numbering, V domains shown)
VH: B1 VH with K67S, H68G
VL: B1 VL
notes: as m1, one VH change
B9: dBBDu183H H96W / dBBDu072L (antibody, name in Kabat numbering, V domains shown)
VH: B1 VH with H68G, H102W
VL: B1 VL
notes: as m1, one VH change
B10: dBBDu183H H96F / dBBDu072L (antibody, name in Kabat numbering, V domains shown)
VH: B1 VH with H68G, H102F
VL: B1 VL
notes: as m1, one VH change
B11: dBBDu183H H96Y / dBBDu072L (antibody, name in Kabat numbering, V domains shown)
VH: B1 VH with H68G, H102Y
VL: B1 VL
notes: as m1, one VH change
B12: dBBDu183H K64H / dBBDu072L (antibody, name in Kabat numbering, V domains shown)
VH: B1 VH with K67H, H68G
VL: B1 VL
notes: as m1, one VH change
B13: dBBDu183H K64Q / dBBDu072L (antibody, name in Kabat numbering, V domains shown)
VH: B1 VH with K67Q, H68G
VL: B1 VL
notes: as m1, one VH change
B14: dBBDu183H G65R / dBBDu072L (antibody, name in Kabat numbering, V domains shown)
VH: B1 VH with H68R
VL: B1 VL
notes: as m1, one VH change
B15: dBBDu183H H93N / dBBDu072L (antibody, name in Kabat numbering, V domains shown)
VH: B1 VH with H68G, H99N
VL: B1 VL
notes: as m1, one VH change
B16: dBBDu183H H96V / dBBDu072L (antibody, name in Kabat numbering, V domains shown)
VH: B1 VH with H68G, H102V
VL: B1 VL
notes: as m1, one VH change
B17: dBBDu183H G65S / dBBDu072L (antibody, name in Kabat numbering, V domains shown)
VH: B1 VH with H68S
VL: B1 VL
notes: as m1, one VH change
B18: dBBDu183H L100dV / dBBDu072L (antibody, name in Kabat numbering, V domains shown)
VH: B1 VH with H68G, L110V
VL: B1 VL
notes: as m1, one VH change
B19: dBBDu183H G65T / dBBDu072L (antibody, name in Kabat numbering, V domains shown)
VH: B1 VH with H68T
VL: B1 VL
notes: as m1, one VH change
B20: dBBDu183H H96T / dBBDu072L (antibody, name in Kabat numbering, V domains shown)
VH: B1 VH with H68G, H102T
VL: B1 VL
notes: as m1, one VH change
B21: dBBDu183H K64W / dBBDu072L (antibody, name in Kabat numbering, V domains shown)
VH: B1 VH with K67W, H68G
VL: B1 VL
notes: as m1, one VH change
B22: dBBDu183H G65Q / dBBDu072L (antibody, name in Kabat numbering, V domains shown)
VH: B1 VH with H68Q
VL: B1 VL
notes: as m1, one VH change
B23: dBBDu183H K64R / dBBDu072L (antibody, name in Kabat numbering, V domains shown)
VH: B1 VH with K67R, H68G
VL: B1 VL
notes: as m1, one VH change
B24: dBBDu183H K64D / dBBDu072L (antibody, name in Kabat numbering, V domains shown)
VH: B1 VH with K67D, H68G
VL: B1 VL
notes: as m1, one VH change
B25: dBBDu183H L100dS / dBBDu072L (antibody, name in Kabat numbering, V domains shown)
VH: B1 VH with H68G, L110S
VL: B1 VL
notes: as m1, one VH change
B26: dBBDu183H G65N / dBBDu072L (antibody, name in Kabat numbering, V domains shown)
VH: B1 VH with H68N
VL: B1 VL
notes: as m1, one VH change
B27: dBBDu183H K64N / dBBDu072L (antibody, name in Kabat numbering, V domains shown)
VH: B1 VH with K67N, H68G
VL: B1 VL
notes: as m1, one VH change
B28: dBBDu183H K64Y / dBBDu072L (antibody, name in Kabat numbering, V domains shown)
VH: B1 VH with K67Y, H68G
VL: B1 VL
notes: as m1, one VH change
B29: dBBDu183H G65V / dBBDu072L (antibody, name in Kabat numbering, V domains shown)
VH: B1 VH with H68V
VL: B1 VL
notes: as m1, one VH change
B30: dBBDu183H K64F / dBBDu072L (antibody, name in Kabat numbering, V domains shown)
VH: B1 VH with K67F, H68G
VL: B1 VL
notes: as m1, one VH change
B31: dBBDu183H K64T / dBBDu072L (antibody, name in Kabat numbering, V domains shown)
VH: B1 VH with K67T, H68G
VL: B1 VL
notes: as m1, one VH change
B32: dBBDu183H K64G / dBBDu072L (antibody, name in Kabat numbering, V domains shown)
VH: B1 VH with K67G, H68G
VL: B1 VL
notes: as m1, one VH change
B33: dBBDu183H G65W / dBBDu072L (antibody, name in Kabat numbering, V domains shown)
VH: B1 VH with H68W
VL: B1 VL
notes: as m1, one VH change

target: T1, Human CD137 ECD (human); experiment: SPR, vs parent H183/L072
T1 construct: also called 4-1BB
T1 sequence (chain, as listed by the source limits assumed): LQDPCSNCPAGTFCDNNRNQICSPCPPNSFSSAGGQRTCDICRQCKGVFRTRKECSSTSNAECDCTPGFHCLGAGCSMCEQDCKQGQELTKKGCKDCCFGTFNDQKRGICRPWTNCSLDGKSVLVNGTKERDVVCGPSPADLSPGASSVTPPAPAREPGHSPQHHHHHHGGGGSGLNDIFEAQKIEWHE

Row | fold change of affinity [fold] | Binder
1 | 1.2 | B1
2 | 1 | B2
3 | 0.4 | B3
4 | 1.1 | B4
5 | 0.7 | B5
6 | 1.3 | B6
7 | 0.5 | B7
8 | 1.2 | B8
9 | 1.6 | B9
10 | 1.4 | B10
11 | 3.3 | B11
12 | 1.1 | B12
13 | 1.1 | B13
14 | 1.1 | B14
15 | 0.1 | B15
16 | 0.8 | B16
17 | 1.2 | B17

Row | fold change of affinity [fold] | Binder
18 | 0.5 | B18
19 | 1.3 | B19
20 | 0.5 | B20
21 | 1.2 | B21
22 | 1.2 | B22
23 | 1.1 | B23
24 | 1.1 | B24
25 | 0.5 | B25
26 | 1.2 | B26
27 | 1 | B27
28 | 1.1 | B28
29 | 1.2 | B29
30 | 1.1 | B30
31 | 1.1 | B31
32 | 1.1 | B32
33 | 1.3 | B33
